Test results from patent US20130064834A1 (published 2013).

T1: his-tagged Syrian golden hamster (Mesocricetus auratus) PCSK9 (Syrian golden hamster (Mesocricetus …))
T1 chain: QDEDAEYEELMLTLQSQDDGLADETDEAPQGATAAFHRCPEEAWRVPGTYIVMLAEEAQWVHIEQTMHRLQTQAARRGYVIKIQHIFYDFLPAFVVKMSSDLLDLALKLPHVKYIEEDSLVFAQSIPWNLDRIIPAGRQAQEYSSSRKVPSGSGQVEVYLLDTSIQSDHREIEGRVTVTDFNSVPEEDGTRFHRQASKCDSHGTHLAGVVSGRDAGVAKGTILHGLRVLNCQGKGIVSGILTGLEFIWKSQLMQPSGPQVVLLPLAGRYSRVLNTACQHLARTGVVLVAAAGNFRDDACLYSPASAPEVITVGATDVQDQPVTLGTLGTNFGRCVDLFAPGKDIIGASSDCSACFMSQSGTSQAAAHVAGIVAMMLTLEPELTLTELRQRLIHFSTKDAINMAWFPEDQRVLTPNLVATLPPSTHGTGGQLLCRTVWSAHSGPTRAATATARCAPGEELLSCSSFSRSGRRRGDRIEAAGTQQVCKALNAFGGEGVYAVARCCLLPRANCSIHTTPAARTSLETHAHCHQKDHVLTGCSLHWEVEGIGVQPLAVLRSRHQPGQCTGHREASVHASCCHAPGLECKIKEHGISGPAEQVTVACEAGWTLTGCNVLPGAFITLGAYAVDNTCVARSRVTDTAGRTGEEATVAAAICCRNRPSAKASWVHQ


What was measured:
Human PCSK9-myc-myc-his [1] = target: T2, Human PCSK9-myc-myc-his (human, UniProt Q8NBP7 31-692); test: cell-based or functional assay
Human PCSK9-myc-myc-his [2] = target: T2, Human PCSK9-myc-myc-his; test: cell-based or functional assay; remark: listed apart in the source
hPCSK9(D374Y)-mmh [3] = target: T3, hPCSK9(D374Y)-mmh (human, UniProt Q8NBP7 31-692); test: cell-based or functional assay
[4] = target: T4, cynomolgus monkey (Macaca fascicularis) PCSK9, myc-myc-his tagged (cynomolgus monkey (Macaca fascicularis), UniProt A8T662 31-692 (Macaca nemestrina entry), limits assumed); test: cell-based or functional assay
T4 sequence (A8T662 31-692 limits assumed): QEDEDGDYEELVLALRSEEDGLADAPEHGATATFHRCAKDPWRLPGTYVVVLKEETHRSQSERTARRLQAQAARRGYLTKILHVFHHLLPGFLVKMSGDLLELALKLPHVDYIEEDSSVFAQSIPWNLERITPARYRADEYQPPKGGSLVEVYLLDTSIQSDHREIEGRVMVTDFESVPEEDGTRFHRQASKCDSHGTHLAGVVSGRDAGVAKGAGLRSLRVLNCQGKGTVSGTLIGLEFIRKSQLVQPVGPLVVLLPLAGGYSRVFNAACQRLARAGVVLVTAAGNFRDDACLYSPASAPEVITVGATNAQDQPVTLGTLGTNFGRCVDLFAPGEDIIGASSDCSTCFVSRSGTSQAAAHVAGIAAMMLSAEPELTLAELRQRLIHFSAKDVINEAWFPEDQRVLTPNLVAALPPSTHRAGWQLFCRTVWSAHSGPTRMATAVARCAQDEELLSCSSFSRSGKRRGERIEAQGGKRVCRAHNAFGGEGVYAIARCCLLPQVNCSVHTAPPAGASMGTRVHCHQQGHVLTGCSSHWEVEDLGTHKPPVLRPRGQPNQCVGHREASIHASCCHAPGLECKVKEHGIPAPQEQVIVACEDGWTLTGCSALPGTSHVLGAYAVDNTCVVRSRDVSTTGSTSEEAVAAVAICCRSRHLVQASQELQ

[5] = target: T5, mouse PCSK9, myc-myc-his tagged (mouse, UniProt Q80W65 35-694); test: cell-based or functional assay
[6] = target: T1, his-tagged Syrian golden hamster …; test: cell-based or functional assay
[7] = target: T6, rat (Rattus norvegicus) PCSK9, myc-myc-his tagged (rat (Rattus norvegicus), UniProt P59996 31-691); test: cell-based or functional assay
T6 sequence (P59996 31-691 limits assumed): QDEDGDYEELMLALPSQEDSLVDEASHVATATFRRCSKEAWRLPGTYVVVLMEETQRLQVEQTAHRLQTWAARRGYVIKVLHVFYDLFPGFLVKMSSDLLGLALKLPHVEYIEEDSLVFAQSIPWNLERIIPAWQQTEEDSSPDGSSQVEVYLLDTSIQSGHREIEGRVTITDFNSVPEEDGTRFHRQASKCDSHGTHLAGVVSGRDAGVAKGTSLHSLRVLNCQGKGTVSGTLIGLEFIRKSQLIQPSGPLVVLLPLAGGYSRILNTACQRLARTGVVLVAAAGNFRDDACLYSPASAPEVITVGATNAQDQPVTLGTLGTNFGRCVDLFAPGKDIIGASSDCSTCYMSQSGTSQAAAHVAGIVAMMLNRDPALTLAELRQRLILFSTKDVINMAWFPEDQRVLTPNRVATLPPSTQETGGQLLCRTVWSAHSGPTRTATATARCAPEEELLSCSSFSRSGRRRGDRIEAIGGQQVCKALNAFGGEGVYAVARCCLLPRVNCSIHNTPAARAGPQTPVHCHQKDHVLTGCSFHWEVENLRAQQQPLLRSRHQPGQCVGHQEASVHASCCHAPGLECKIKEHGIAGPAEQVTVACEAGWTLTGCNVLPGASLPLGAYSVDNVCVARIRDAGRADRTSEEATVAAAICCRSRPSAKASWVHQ

Human PCSK9-myc-myc-his [8] = target: T2, Human PCSK9-myc-myc-his; test: competition ELISA vs EGF-A, pH 7.2
Description: (§1) Briefly, hLDLR-ecto, hLDLR EGF-A-hFc or hLDLR EGF-AB-hFc, each at 2 μg/ml, was coated on a 96-well plate in PBS buffer overnight at 4° C., and nonspecific binding sites blocked with BSA. […] The equilibrated sample solutions were transferred to receptor or receptor fragment coated plates.

[9] = target: T7, tagged rhesus monkey (Macaca mulata) PCSK9 (rhesus monkey (Macaca mulata), UniProt A8T666 31-692); test: competition ELISA vs EGF-A, pH 7.2
T7 construct: also called mmPCSK9-mmh; mmPCSK9
T7 sequence (A8T666 31-692 limits assumed): as the sequence (A8T662 31-692 limits assumed) above, with A607P, E639K counted along it
Description: as §1

[10] = target: T4, cynomolgus monkey (Macaca fascicularis) …; test: competition ELISA vs EGF-A, pH 7.2
Description: as §1

[11] = target: T6, rat (Rattus norvegicus) PCSK9, …; test: competition ELISA vs EGF-A, pH 7.2
Description: as §1

Human PCSK9-myc-myc-his [12] = target: T2, Human PCSK9-myc-myc-his; test: competition ELISA vs EGF-A-hFc, pH 5.5
Description: as §1

Human PCSK9-myc-myc-his [13] = target: T2, Human PCSK9-myc-myc-his; test: competition ELISA vs EGF-A-hFc, pH 7.2
Description: as §1

hPCSK9(D374Y)-mmh [14] = target: T3, hPCSK9(D374Y)-mmh; test: competition ELISA vs EGF-A-hFc, pH 5.5
Description: as §1

hPCSK9(D374Y)-mmh [15] = target: T3, hPCSK9(D374Y)-mmh; test: competition ELISA vs EGF-A-hFc, pH 7.2
Description: as §1

Human PCSK9-myc-myc-his [16] = target: T2, Human PCSK9-myc-myc-his; test: competition ELISA vs EGF-AB-hFc, pH 5.5
Description: as §1

hPCSK9(D374Y)-mmh [17] = target: T3, hPCSK9(D374Y)-mmh; test: competition ELISA vs EGF-AB-hFc, pH 7.2
Description: as §1

Human PCSK9-myc-myc-his [18] = target: T2, Human PCSK9-myc-myc-his; test: SPR, mAb captured on anti-hFc, 100 nM antigen
Description: (§2) Changes in RU due to the binding of each protein to the mAb surface was determined.

[19] = target: T5, mouse PCSK9, myc-myc-his tagged; test: SPR, mAb captured on anti-hFc, 100 nM antigen
Description: as §2

[20] = target: Chimeric protein #2 (hPro-mCat-mC-term-mmh) (human; mouse, UniProt Q80W65 19-694); test: SPR, mAb captured on anti-hFc, 100 nM antigen
Description: as §2

Binder | IC50, LDL uptake in HepG2 cells with 50 nM hPCSK9-mmh (Human PCSK9-myc-myc-his [1]) | IC50, LDL uptake in HepG2 cells (Human PCSK9-myc-myc-his [2]) | IC50, LDL uptake in HepG2 cells (hPCSK9(D374Y)-mmh [3]) | IC50, LDL uptake in HepG2 cells [4] | IC50, LDL uptake in HepG2 cells [5] | IC50, LDL uptake in HepG2 cells [6] | IC50, LDL uptake in HepG2 cells [7] | IC50 (Human PCSK9-myc-myc-his [8]) | IC50 [9] | IC50 [10] | IC50 [11] | IC50 (Human PCSK9-myc-myc-his [12]) | IC50 (Human PCSK9-myc-myc-his [13]) | IC50 (hPCSK9(D374Y)-mmh [14]) | IC50 (hPCSK9(D374Y)-mmh [15]) | IC50 (Human PCSK9-myc-myc-his [16]) | IC50 (hPCSK9(D374Y)-mmh [17]) | change in RU (Human PCSK9-myc-myc-his [18]) | change in RU [19] | change in RU [20]
H1H316P (antibody, V domains shown, Fully human mAb made in CHO cells; also called mAb316P) VH: EVQLVESGGGLVQPGGSLRLSCAASGFTFNNYAMNWVRQAPGKGLDWVSTISGSGGTTNYADSVKGRFIISRDSSKHTLYLQMNSLRAEDTAVYYCAKDSNWGNFDLWGRGTLVTVSS VL: not shown | 21.3 nM | 14.1 nM | 2.1 nM | 14.7 nM | 21.2 nM | 14.4 nM | 27.7 nM | < 0.125 nM | < 0.25 nM | 0.075 nM | 2.66 nM | < 0.125 nM | < 0.125 nM | 1.12 nM | 0.203 nM | < 0.125 nM | 0.139 nM | 500 RU | 505 RU | 451 RU
H1M300N (antibody, V domains shown, Fully human version made in CHO cells) VH: EMQLVESGGGLVQPGGSLRLSCAASGFTFSSHWMKWVRQAPGKGLEWVANINQDGSEKYYVDSVKGRFTISRDNAKNSLFLQMNSLRAEDTAVYYCARDIVLMVYDMDYYYYGMDVWGQGTTVTVSS VL: not shown | 22.1 nM | 12.6 nM | 11 nM | 13.4 nM | > 500 nM | > 500 nM | > 500 nM | 0.182 nM | 0.46 nM | 0.473 nM | > 100 nM | 0.538 nM | 0.146 nM | 3.46 nM | 0.135 nM | 0.447 nM | 0.142 nM | 320 RU | 13 RU | 76 RU
